According to the DeepSol protein solubility set:

assay: soluble on expression in E. coli; label from the status in PepcDB or PDB records

Sequence | soluble on expression in E. coli
MSLATIATLRVLLLAIPDDAAPESDLNLVSWTILNGLRRECERRGIRIVPFVSTGRRIDGAQVRQMALAERADGIVVLNDDQPELIRSLASPDMPVVIVNGEDPAMLVDTVTPENRFGARLGIEHLLALGHRRILHLTWKGRTTIQRRYDGFSDAYLAAQLPVPDNMVVEAEGYEPRHGEAAINALLDRDATVKGATAVFCAADNMALGCLKALADRDIRVPEAISVLGFDDIVPGEFSRPPLSTVSVPTDKLGAAALALIEQRLIANDPQRPAHRLELGCHLVLRGSEGHHHHHH | not soluble
MSLATIKDIAKEVGCSISTVSRVLNNDPTLSVGDETRSRIFEVAEEIGYRKKTLKTLVKNIAFLYWLTDNEELEDVYFQTMRVEIEKKARENNIELTTYKLEGGIEKIPLDIDGFIAVGSFMNRELEYLRELTPHGVFIDSTPDPAHYDSVRPDLAQITRQAVEVLVEQGHEKIGFIGGTYHNLDTDAEEMDGRERAFRQTMEERDLLREDFIFCRRGFSVDNGHYLMNQAVEQLGEELPTAFYVAADPIAVGCLQVLNEQQIEIPKRVSLISVNDTSISKYVSPPLTTFHIDLEEICQNAIQLLLERVLKKRNIVKTVYIGAELITRKSTEGHHHHHH | soluble
MSLAYISLKSNLENPKYSLNVAHLYGDLMNTYGDNGNILMLKYVGEKLGAEMTFNIVSLGDTFAKEDYDLVFWGGGQDYEQEIIADQSLIDLSAPLKDYIESEKPLLAICGGYQMLGQYYVNSEGTKIQGTGILGHYTENLRTDRFIGDIETHNEEFGETYYGFENHSGITYLSDDEKPLGTVVYGGGNNPDDQTEGLIYKNTFGTYFHGPILSRNARLAYRLVTTALYQKYGEEIQLPAFEEILADEDKGQQIGDLKRKVEKEGHHHHHH | soluble
MSLAYIYLMRHAKTVMNIEGRWQGINDSDIPEESLRHFEERIRFLAGKNIKAIYSSCLVRSIKSATVAASILGIDHIETVRGFNERDLGLMEGKTNDEIREKFGITDIYIASRAIESIPMVEPWPKFVGRVMATLQAFSGRDGSLVITHGGVMRAIYNTLTGSNERRVIFDNGYILKLEFSGSWRISEIIGQEGHHHHHH | soluble
MSLDDLLKEVLKDKRLLEVLRHLKRANVDYGKSIMLNTKIPLTEVLDVLDKLESLGLIERVTGATLKNTEAKFKLSQEVHKHHTYYRLTRDGDHLLRRLDEKDIIDAYAEIVKDDEVGLKLLYYAEELHSDHALTYSKLLRKPLEEITPKIEELERMGLMEEKNSKVIKFRERRAKPEGHHHHHH | not soluble
MSLDDQITNAAEKGVTDRFYGLIPNGYLFIENGLISAFGPMSALQENLTNSTAMSQIDDAIDAAGRLLTPALIDCHTHVVYGGHRALEFEMRLKGASYAEMAKAGGGIVSTVSATRSQSVEQLVQGALARVDALIAEGISLIEIKSGYGLDIETELRMLRAARSIEAARPVRVITSFLGAHAMPPGEDMSPEGYIEKTCIPALHQAHKEGLVDAVDGFCESIAFSADQIVPLFNVAAELGLPVKLHAEQLTRCGGSLLAASHKALSVDHVEYANKEDVRALAAAGCSAVLLPGAFYTLRETQKPPVALFRDQGVPMAIATDANPGSSPMTSLLLAMNMGCTLFGMTPYEALAGVTRNAARALGVSDSGMLRPGLRADLALWDVAHPAELAYRIGFNPLHRRIFGGQIAEGHHHHHH | soluble
MSLDFHGVFPYLVSPVDAEGRVRADVMGRLCDDLIQAGVHGLTPLGSTGEFAYLGTAQREAVVRATIEAAQRRVPVVAGVASTSVADAVAQAKLYEKLGADGILAILEAYFPLKDAQIESYFRAIADAVEIPVVIYTNPQFQRSDLTLDVIARLAEHPRIRYIKDASTNTGRLLSIINRCGDALQVFSASAHIPAAVMLIGGVGWMAGPACIAPRQSVALYELCKAQRWDEALMLQRKLWRVNEAFAKFNLAACIKAGLALQGYDVGDPIPPQAALTAEERKAVEKVLAEIAEGHHHHHH | soluble
MSLDISFQIQDAVASVIRAPLASPFRIATGQHDELENVFLKLTTRDGVSGYGEAAVASHITGETVPGTLANLQNAAAALRGQTVDDAESACRQFAAAFAGNHAGLAALEMALLDLSSRVRGIPFYRLFAPVAALEPRLAFSTDITVVIGSLDEARATAREFASRGFKAFKIKIGRDEQLDLARVLAVHEIAPDSQIILDANMGFSAGSMLAFLDRLAAKGVRPVLLEQPVPKMDWDGLSEITAALTGSETLVCADESVGSLADARRAIDSNAVSAINVKFMKSGILEGAEIARLAASRGIRLMLGAMMESALAVTASAHFAAGLACFDYLDMDTTFFLKGELAHSPYLDEHGRFDLHDAGPGIGVEPRFSEGHHHHHH | soluble
MSLDKPVIKISTENVDLIYRVGDNGRLYQSYLGKRLNHATDIAHLPQGSEAYLTHGMEDYFEPAIHIVHNDGNPSTLLKYVSHTRNQVSPGVDEVVITMQDDKYPVTVKLHYVAYQKENLIKTFTEISHREKKPVQLHKYASSMLHLNRANYFLTEFSGDWASEAHVKEQPLEFGKKTIDTKLGARANMFCSPFFQLALDGKSEENQGEVLVGTLGWTGNFSFVFEVDNKNELRVISGINPYASEYSLKPNEIFRTPDFYFTYSFKGKGQASRNFHDWARKYQVKDGNQTRMTLLNNWEATYFDFDEAKLVKLMDDAVELGVDMFLLDDGWFANKYPRSGDHQGLGDWDETADKLPHGIGYLTEAAKKKGIKFGIWIEPEMVNPKSELYEKHKDWVIHLPNRDEYYFRNQLVLDLSNPKVQDYVFGVVDNLMTKYPDIAFFKWDCNSPITNIYSVYLKDKQSHLYIDYVRGLYNVLERVKAKYPDLPMMLCSGGGGRSDYEALSYFTEFWPSDNTDPIERLFIQWGFSQVFPAKTMCAHVTTWNKNSSVKFRTDVAMMCKLGFDIKLADMSKDDETYCRTAVQNYNRLKPVVLEGDMYRLVSPYGSNHTSTMYVGKDKDKAVVFAFDIHPRYAEKILPVRLQGLDADKMYRVKEINLMPGANSEGHHHHHH | not soluble
MSLDKVERRLYELYEKAINYEPLSKEEALYILEVDDIYVPFLVHLAQKIKKHYFPENEVEFCSIINAKSGACSEDCKFCAQSKYYKTPINVYNLVPVDEMVEGAIRGVEFGANRYCIVLSGKSATKEEVERITEAVKEIKNEGLPINVCVSAGTLDEESLKKLKEAGVKRINHNLETSRNFFKNIVTTHTWEDRYETIKRIKKVGLSTCSGGIFGMGESNEDRVDMALTYRELEVDSIPLNFLMPIEGTPMENAPGVEVMEALKIIAMFRFTNPKAELRLCGGREQNLRDFHGMATLMTNAMMVGGYLTRAGRDIKKDYQLLKDLKAKRKVSVEEGHHHHHH | soluble
MSLDKVLVGYWHNWKSTGKDGYKGGSSADFNLSSTQEGYNVINVSFMKTPEGQTLPTFKPYNKTDTEFRAEISKLNAEGKSVLIALGGADAHIELKKSQESDFVNEIIRLVDTYGFDGLDIDLEQAAIEAADNQTVIPSALKKVKDHYRKDGKNFMITMAPEFPYLTSSGKYAPYINNLDSYYDFINPQYYNQGGDGFWDSDLNMWISQSNDEKKEDFLYGLTQRLVTGTDGFIKIPASKFVIGLPSNNDAAATGYVKDPNAVKNALNRLKASGNEIKGLMTWSVNWDAGTNSNGEKYNNTFVNTYAPMLFNNEGIITITTDPNSSSVDKLAAALEHHHHHH | soluble
MSLDLFSWAAAQQAAQSAPLAARMRPQTLDEFVGQEHLVGPGRFLRRALEAGHLPSCILFGPPGTGKTTLARLMASNVNAHFEQLNAVTSGVQDIRRIVDEARARLAERGQKTVVFIDEIHRWRKDQQDALLPHVEDGLITLVGATTQNPLVSVNAPLVSRTRIFELKPLSDEHIAHLLDRALRTPGRGLGNYNATVTPEAMEHLVRMAGGDARAALNALELAVLLTQPDEQGRRTVTLETAEEALLKRAVVYDHDGDEHYHVASALIKSIRGSDPDAALYWLARMLYAGEDPRFIARRLVISAAEDIGLADPQALVIAQAAADAVSFIGMPEGRIPLAEAVVYLACAPKSNSAYLAIDRALAVVEREKTPPVPNHLKDTGYGSDQRLGYGKGYQYPHDFPGAWVEQRYLPEGVDGPFWEPKGYGREAELARLLRERRGREGHHHHHH | not soluble
